Data from US20250250357A1 (NANJING ZAIMING PHARMACEUTICAL, published 2025).

T1: human MSLN-R1-his protein (human, UniProt Q13421 296-390)
T1 construct: Self-made in HEK293E cells; also called human MSLN-R1 protein; hMSLN-R1-his; not shown: His tag
T1 chain: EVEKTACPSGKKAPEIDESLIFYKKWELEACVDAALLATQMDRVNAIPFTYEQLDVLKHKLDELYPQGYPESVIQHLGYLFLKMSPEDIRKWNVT


Legend:
[1] = molecular target: T2, human MSLN-FL-his protein (human, UniProt Q13421 296-580); test: ELISA on coated antigen, antibody 1 nM
T2 construct: Self-made in HEK293E cells; also called human MSLN full-length protein; hMSLN-FL-his; not shown: His tag

[2] = molecular target: T1, human MSLN-R1-his protein; test: ELISA on coated antigen, antibody 1 nM
Protocol: (§1) The plate was sealed with a plastic film and incubated at 4° C. overnight. The next day, the plate was washed twice with PBST, and a blocking buffer [PBS+2% (w/w) BSA] was added for blocking at room temperature for 2 h. The blocking buffer was discarded, and a chimeric antibody or negative control antibody serially diluted from 100 nM was added at 50 μL/well. After incubation at 37° C. for 2 h, the plate was washed 3 times with PBST. […] After incubation at 37° C. for 2 h, the plate was washed 5 times with PBST. A TMB substrate was added at 50 μL/well for incubation at room temperature for 5-10 min, and then a stop solution (1.0 N HCl) was added at 50 μL/well.

[3] = molecular target: T2, human MSLN-FL-his protein; test: ELISA on coated antigen, antibody 10 nM
Protocol: as §1

[4] = molecular target: T1, human MSLN-R1-his protein; test: ELISA on coated antigen, antibody 10 nM
Protocol: as §1

[5] = molecular target: T2, human MSLN-FL-his protein; test: ELISA on coated antigen, antibody 0.1 nM
Protocol: as §1

[6] = molecular target: T2, human MSLN-FL-his protein; test: ELISA on coated antigen, antibody 100 nM
Protocol: as §1

[7] = molecular target: T1, human MSLN-R1-his protein; test: ELISA on coated antigen, antibody 0.1 nM
Protocol: as §1

[8] = molecular target: T1, human MSLN-R1-his protein; test: ELISA on coated antigen, antibody 100 nM
Protocol: as §1

[9] = molecular target: T2, human MSLN-FL-his protein; test: ELISA on coated antigen, antibody 0.01 nM
Protocol: as §1

[10] = molecular target: T1, human MSLN-R1-his protein; test: ELISA on coated antigen, antibody 0.01 nM
Protocol: as §1

[11] = molecular target: T2, human MSLN-FL-his protein; test: ELISA on coated antigen, antibody 0.001 nM
Protocol: as §1

[12] = molecular target: T1, human MSLN-R1-his protein; test: ELISA on coated antigen, antibody 0.001 nM
Protocol: as §1

[13] = molecular target: T2, human MSLN-FL-his protein; test: ELISA on coated antigen, antibody 0.0001 nM
Protocol: as §1

[14] = molecular target: T1, human MSLN-R1-his protein; test: ELISA on coated antigen, antibody 0.0001 nM
Protocol: as §1

[15] = molecular target: T2, human MSLN-FL-his protein; test: ELISA on coated antigen, no antibody (column none)
Protocol: as §1

[16] = molecular target: T1, human MSLN-R1-his protein; test: ELISA on coated antigen, no antibody (column none)
Protocol: as §1

| OD450 [1] | OD450 [2] | OD450 [3] | OD450 [4] | OD450 [5] | OD450 [6] | OD450 [7] | OD450 [8] | OD450 [9] | OD450 [10] | OD450 [11] | OD450 [12] | OD450 [13] | OD450 [14] | OD450 [15] | OD450 [16] | Binder |
| --- | --- | --- | --- | --- | --- | --- | --- | --- | --- | --- | --- | --- | --- | --- | --- | --- |
| 0.07 OD450 | 0.06 OD450 | 0.06 OD450 | 0.07 OD450 | 0.07 OD450 | 0.1 OD450 | 0.06 OD450 | 0.11 OD450 | 0.07 OD450 | 0.06 OD450 | 0.06 OD450 | 0.07 OD450 | 0.06 OD450 | 0.07 OD450 | 0.07 OD450 | 0.07 OD450 | S009-F3.38.10 (antibody, human IgG1, kappa, V domains shown, Human-murine chimeric antibody: murine VH/VL on human IgG1 heavy and kappa light constant regions) VH: EVQLQQSGPVLVKPGASVKMSCEASGYIFTDYYMNWVKKSHGKSLEWIGVINPKNGVISHNQKFKGKATLTVDKSSNTAYMELSSLTSEDSAVYYCANYGSRFYAMDYWGQGTSVTVSS VL: DVVMTQTPLSLPVSLGDQASISCRSSQSLIHSDGNTYLQWYLQKSGQSPKLLIYKVSNRFSGVPDRFSGSGSGTDFTLKISRVETEDLGVYFCSQTTHVPFTFGSGTKLEIKR |
| 1.97 OD450 | 0.05 OD450 | 1.99 OD450 | 0.06 OD450 | 1.71 OD450 | 2.31 OD450 | 0.06 OD450 | 0.07 OD450 | 0.69 OD450 | 0.06 OD450 | 0.14 OD450 | 0.06 OD450 | 0.07 OD450 | 0.06 OD450 | 0.07 OD450 | 0.06 OD450 | S009-F3.80.22 (antibody, human IgG1, kappa, V domains shown, Human-murine chimeric antibody: murine VH/VL on human IgG1 heavy and kappa light constant regions) VH: QVQLQQSGAELVRPGASVTLSCKASGYTFTDYEIHWVKQTPVHGLEWIGAFDPEIGGSAYNQKFKDRATLTADKSSSTAYMELHSLTAEDSAVYYCTDYYGSSSGYFDVWGTGTTVTVSS VL: DVVMTQTPLSLPVSLGDQASISCRSSQSLEHNNGNTYLHWFLHKPGQSPKLLIYKVSNRFSGVPDRFSGSGSGTDFTLKISRVEAEDLGVYFCSQSTHVPFTFGSGTKLEIKR |
| 1.99 OD450 | 0.06 OD450 | 2.15 OD450 | 0.07 OD450 | 1.72 OD450 | 2.76 OD450 | 0.05 OD450 | 0.09 OD450 | 0.62 OD450 | 0.05 OD450 | 0.14 OD450 | 0.05 OD450 | 0.06 OD450 | 0.05 OD450 | 0.06 OD450 | 0.06 OD450 | S009-F3-63.5 (antibody, human IgG1, kappa, V domains shown, Human-murine chimeric antibody: murine VH/VL on human IgG1 heavy and kappa light constant regions) VH: QVQLQQSGAELVRPGASVTLSCKASGYTFTDYEMHWVKQTPVHGLEWIGGIDPETGDTAYNQQFKGKAILTADRSSSTAYMELRSLTSEDSAVYYCTNYASSREDYWGQGTTLTVSS VL: not shown |
| 0.07 OD450 | 0.07 OD450 | 0.08 OD450 | 0.08 OD450 | 0.07 OD450 | 0.13 OD450 | 0.07 OD450 | 0.12 OD450 | 0.07 OD450 | 0.06 OD450 | 0.06 OD450 | 0.07 OD450 | 0.06 OD450 | 0.07 OD450 | 0.08 OD450 | 0.08 OD450 | S009-F3.7.3 (antibody, human IgG1, kappa, V domains shown, Human-murine chimeric antibody: murine VH/VL on human IgG1 heavy and kappa light constant regions) VH: EVNFEESGGGLVQPGGSMKLSCVASGFTFSNYWMNWVRQSPEKGLEWVAQIRLKSDNYATHYAESVKGRFTISRDDFKSSVYLQMNNLRAEDTGIYYCTVGTGGYWGQGTTLTVSS VL: DIVLTQSPASLAMSLGKRATISCRASESVSIVGTNVIHWFQQKPGQPPKLLIYHASNLETGVPARFSGSGSGTDFTLTIDPVEEDDVAIYHCLQSRKIPWTFGGGTKLEIKR |
| 0.08 OD450 | 0.06 OD450 | 0.11 OD450 | 0.08 OD450 | 0.08 OD450 | 0.12 OD450 | 0.07 OD450 | 0.1 OD450 | 0.07 OD450 | 0.06 OD450 | 0.06 OD450 | 0.07 OD450 | 0.06 OD450 | 0.07 OD450 | 0.08 OD450 | 0.08 OD450 | S009-F3.16.1 (antibody, human IgG1, kappa, V domains shown, Human-murine chimeric antibody: murine VH/VL on human IgG1 heavy and kappa light constant regions) VH: EVKFEESGGGLVQPGGSMKLSCVASGFTFSNYWMNWVRQSPEKGLEWVAQIRLKSDNYATHYAESVKGRFSISRDDSKSSVYLQMNNLRAEDTGIYYCSVGTGGYWGQGTTLTVSS VL: DIVLTQSPASLALSPGKRATISCRASESVSIIGTDVIHWFQQKPGQPPKLLIYHASNLETGVPARFSGSGSRTDFTLTIDPVEEDDVAIYYCLQSRKIPWTFGGGTKLEIKR |
| 1.98 OD450 | 0.06 OD450 | 2.11 OD450 | 0.06 OD450 | 1.76 OD450 | 2.39 OD450 | 0.06 OD450 | 0.08 OD450 | 0.7 OD450 | 0.06 OD450 | 0.15 OD450 | 0.06 OD450 | 0.07 OD450 | 0.07 OD450 | 0.07 OD450 | 0.07 OD450 | S009-F3.23.1 (antibody, human IgG1, kappa, V domains shown, Human-murine chimeric antibody: murine VH/VL on human IgG1 heavy and kappa light constant regions) VH: QVQLQQSGADLVRPGASVTLSCKASGYTFTDYEMHWVKQTPVHGLEWIGAIDPETGDTVYNQNFKGKAILTADKSSSTAYMELRSLTSEDSAVYYCTRYGYDWGWGQGTTLTVSS VL: not shown |
| 1.88 OD450 | 0.07 OD450 | 1.97 OD450 | 0.08 OD450 | 1.59 OD450 | 2.17 OD450 | 0.06 OD450 | 0.11 OD450 | 0.42 OD450 | 0.06 OD450 | 0.11 OD450 | 0.06 OD450 | 0.07 OD450 | 0.06 OD450 | 0.08 OD450 | 0.07 OD450 | S009-F3.74.20 (antibody, human IgG1, kappa, V domains shown, Human-murine chimeric antibody: murine VH/VL on human IgG1 heavy and kappa light constant regions) VH: RVQLQQSGAELVRPGASVTLSCKASGYTFTDSEMHWVKQTPVHGLEWIGAIDPEIDGTAYNQNFRDKAILTADKSSSTAYMELRSLTSEDSAVYYCTTYFGSGYGYFDVWGTGTTVTVSS VL: DVVMTQTPLSLSVSLGDQASISCRSSQSLVYSNGNTYLHWFLQKPGQSPKLLIYKVSNRFSGVPDRFSGSGSGTDFTLKINRVEAEDLGVYFCSQSTHIPFTFGAGTKLELKR |
| 1.93 OD450 | 0.06 OD450 | 2.06 OD450 | 0.06 OD450 | 1.68 OD450 | 2.58 OD450 | 0.06 OD450 | 0.07 OD450 | 0.63 OD450 | 0.07 OD450 | 0.14 OD450 | 0.07 OD450 | 0.07 OD450 | 0.07 OD450 | 0.08 OD450 | 0.07 OD450 | S009-F3.51.8 (antibody, human IgG1, kappa, V domains shown, Human-murine chimeric antibody on human IgG1/kappa constant regions) VH: QVQLQQSGAELVRPGASVTLSCKASGYTFTDYEMHWVKQTPVHGLEWIGGFDPETGGTAHNQKFKGKAILTADKSSSTAYMELRSLTSEDSAVYYCSNYGSIWGDCWGQGTSVTVSS VL: not shown |
| 1.75 OD450 | 0.06 OD450 | 1.8 OD450 | 0.11 OD450 | 1.63 OD450 | 2.23 OD450 | 0.05 OD450 | 0.65 OD450 | 0.69 OD450 | 0.06 OD450 | 0.35 OD450 | 0.06 OD450 | 0.1 OD450 | 0.06 OD450 | 0.08 OD450 | 0.07 OD450 | S009-F3.45.21 (antibody, human IgG1, kappa, V domains shown, Human-murine chimeric antibody: murine VH/VL on human IgG1 heavy and kappa light constant regions) VH: DVQLQESGPGLVKPSQSLSLTCSVTGDSITSGYYWNWIRQFPGNKLEWMGFIRFDGTNNYNPSLKNRISITRDTSKNQFFLKLNSVTTEDTATYYCAREGSYAPAWFAYWGQGTLVTVSA VL: QIVLTQSPAIMSASPGEKVTMTCSASSSLSYMYWYQQKPGSSPRLLIYDTSNLASGVPVRFSGSGSGTSYSLTISRMEAEDAATYYCQQWSSYPPTFGGGTKLEIKR |
